For three molecules, IC50 of inhibition of BACE1 activity (cleavage of a fluorescent substrate, FRET assay of the BACE1 Activity Detection Kit, 4 h, 37°C) and Kd results are on record in paper PMC4608735, “Inhibition of BACE1 Activity by a DNA Aptamer in an Alzheimer’s Disease Cell Model”.

For orientation: Kd means the constant that tells how readily two partners part at equilibrium.

Series [1] concerns the target β-site APP-cleaving enzyme 1 (BACE1) (UniProt P56817).
Series [2] addresses BACE1 extracellular domain (human, UniProt P56817 46-457). The series can be described thus: indirect ELISA (plate-coated BACE1); ELISA: BACE1 coated in 1x PBS, 5% BSA block, PBST (0.01% Tween 20, pH 7.4) wash, aptamer 60 min at 37 C; SELEX binding buffer: 1x PBS, 5 mM MgCl2, 0.45% glucose, tRNA, salmon sperm DNA, BSA; FRET: kit Fluorescent Assay Buffer, 37 C, 4 h. Conditions: protein: commercial; predicted stem-loop.

BACE1 extracellular domain, sequence (P56817 46-457): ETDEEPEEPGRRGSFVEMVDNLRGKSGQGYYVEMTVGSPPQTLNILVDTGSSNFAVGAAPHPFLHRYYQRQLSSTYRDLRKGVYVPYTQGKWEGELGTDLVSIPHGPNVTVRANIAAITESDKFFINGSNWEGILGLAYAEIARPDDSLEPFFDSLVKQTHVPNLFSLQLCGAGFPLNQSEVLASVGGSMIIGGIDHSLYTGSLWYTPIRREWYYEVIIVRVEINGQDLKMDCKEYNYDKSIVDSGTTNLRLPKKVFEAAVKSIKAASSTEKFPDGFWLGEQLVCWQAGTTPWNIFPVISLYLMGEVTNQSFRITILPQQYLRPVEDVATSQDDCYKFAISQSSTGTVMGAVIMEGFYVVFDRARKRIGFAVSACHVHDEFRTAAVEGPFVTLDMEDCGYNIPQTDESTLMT
β-site APP-cleaving enzyme 1 (BACE1), sequence (P56817 46-501): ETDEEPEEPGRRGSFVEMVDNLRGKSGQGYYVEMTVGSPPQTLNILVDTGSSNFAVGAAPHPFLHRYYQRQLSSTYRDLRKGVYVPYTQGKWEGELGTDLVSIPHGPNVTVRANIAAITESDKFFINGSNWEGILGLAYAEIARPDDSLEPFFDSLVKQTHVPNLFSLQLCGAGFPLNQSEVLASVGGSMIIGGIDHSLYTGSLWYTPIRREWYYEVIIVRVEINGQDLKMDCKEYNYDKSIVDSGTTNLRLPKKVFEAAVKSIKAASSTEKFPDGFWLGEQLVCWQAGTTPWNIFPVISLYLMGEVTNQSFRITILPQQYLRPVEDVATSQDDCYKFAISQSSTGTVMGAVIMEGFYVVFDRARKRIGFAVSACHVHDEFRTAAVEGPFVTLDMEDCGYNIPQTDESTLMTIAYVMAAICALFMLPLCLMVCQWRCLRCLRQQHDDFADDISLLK

In the case of “[Asn670, Sta671, Val672]-Amyloid β/A4 Precursor Protein 770 Fragment 662–675 (from UniProt P05067 662-675) (peptide)”, in series [1], the IC50 of inhibition of BACE1 activity (cleavage of a fluorescent substrate, FRET assay of the BACE1 Activity Detection Kit, 4 h, 37°C) amounted to 242 nM.

B1: A1 (ssDNA)
DNA: GCAATGGTACGGTACTTCCGTCATCAGCTTGTGATGTGGATGCGAACTGCAAAAGTGCACGCTACTTTGCTAA
For the molecule B1, in series [2], the equilibrium dissociation constant (Kd) is 68.6 ± 8.12 nM.

B2: A4 (ssDNA)
DNA: GCAATGGTACGGTACTTCCTGTGTTATTGTTATGTTTTTTCAGTGTAGTCAAAAGTGCACGCTACTTTGCTAA
Regarding B2, the Kd in series [2] was 15.3 ± 2.03 nM.
